{
  "source": "paper doi:10.1101/2022.06.30.498311",
  "about": "(bioRxiv, 2022)",
  "proteins": {"B1": {"name": "Sul1 (enzyme, UniProt P0C002 1-269, looked up)", "chain": "MVTVFGILNLTEDSFFDESRRLDPAGAVTAAIEMLRVGSDVVDVGPAASHPDARPVSPADEIRRIAPLLDALSDQMHRVSIDSFQPETQRYALKRGVGYLNDIQGFPDPALYPDIAEADCRLVVMHSAQRDGIATRTGHLRPEDALDEIVRFFEARVSALRRSGVAADRLILDPGMGFFLSPAPETSLHVLSNLQKLKSALGLPLLVSVSRKSFLGATVGLPVKDLGPASLAAELHAIGNGADYVRTHAPGDLRSAITFSETLAKFRSR"}},
  "target": "the molecule itself",
  "test": "crystal structure",
  "data": [
    {"protein": "B1", "values": [
      {"measurement": "binding result", "result": "binds"}
    ]}
  ]
}
